The term Kd denotes a measure of binding affinity in units of concentration. Read a low Kd as tighter binding.

Here are results for one molecule from article PMC9585388 (Research and Practice in Thrombosis and Haemostasis, 2022).

The assay has as its target T1, fibrinogen (UniProt P02671-2;P02675;P02679-2).
T1 sequence 1: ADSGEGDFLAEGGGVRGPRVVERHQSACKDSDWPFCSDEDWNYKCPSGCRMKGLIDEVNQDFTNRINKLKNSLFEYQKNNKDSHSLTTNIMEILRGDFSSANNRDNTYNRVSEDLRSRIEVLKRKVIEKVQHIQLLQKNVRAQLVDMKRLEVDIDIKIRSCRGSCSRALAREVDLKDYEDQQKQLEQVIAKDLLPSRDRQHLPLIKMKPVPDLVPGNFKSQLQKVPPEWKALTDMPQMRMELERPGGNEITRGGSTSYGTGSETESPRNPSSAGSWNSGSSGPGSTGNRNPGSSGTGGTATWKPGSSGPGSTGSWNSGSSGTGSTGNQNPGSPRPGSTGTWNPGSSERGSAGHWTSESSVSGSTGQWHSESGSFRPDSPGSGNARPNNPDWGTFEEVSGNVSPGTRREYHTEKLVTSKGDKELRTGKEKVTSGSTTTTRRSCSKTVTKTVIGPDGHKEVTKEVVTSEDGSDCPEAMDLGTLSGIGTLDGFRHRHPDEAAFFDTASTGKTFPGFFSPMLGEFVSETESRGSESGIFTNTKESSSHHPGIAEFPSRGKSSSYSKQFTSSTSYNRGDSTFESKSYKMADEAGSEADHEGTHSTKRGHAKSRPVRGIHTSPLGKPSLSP
T1 sequence 2: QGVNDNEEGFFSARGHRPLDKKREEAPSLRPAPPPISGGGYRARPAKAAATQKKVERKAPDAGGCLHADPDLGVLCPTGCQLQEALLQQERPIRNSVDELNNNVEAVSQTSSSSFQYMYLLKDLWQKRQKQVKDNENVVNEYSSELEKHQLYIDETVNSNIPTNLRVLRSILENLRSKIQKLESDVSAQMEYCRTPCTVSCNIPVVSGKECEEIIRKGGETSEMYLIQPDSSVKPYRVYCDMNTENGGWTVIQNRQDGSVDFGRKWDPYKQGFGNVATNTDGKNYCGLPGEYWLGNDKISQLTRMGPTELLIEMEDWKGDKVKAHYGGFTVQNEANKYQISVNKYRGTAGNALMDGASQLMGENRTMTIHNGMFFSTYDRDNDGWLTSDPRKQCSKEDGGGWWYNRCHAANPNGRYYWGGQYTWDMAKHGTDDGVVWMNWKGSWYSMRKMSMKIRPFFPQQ
T1 sequence 3: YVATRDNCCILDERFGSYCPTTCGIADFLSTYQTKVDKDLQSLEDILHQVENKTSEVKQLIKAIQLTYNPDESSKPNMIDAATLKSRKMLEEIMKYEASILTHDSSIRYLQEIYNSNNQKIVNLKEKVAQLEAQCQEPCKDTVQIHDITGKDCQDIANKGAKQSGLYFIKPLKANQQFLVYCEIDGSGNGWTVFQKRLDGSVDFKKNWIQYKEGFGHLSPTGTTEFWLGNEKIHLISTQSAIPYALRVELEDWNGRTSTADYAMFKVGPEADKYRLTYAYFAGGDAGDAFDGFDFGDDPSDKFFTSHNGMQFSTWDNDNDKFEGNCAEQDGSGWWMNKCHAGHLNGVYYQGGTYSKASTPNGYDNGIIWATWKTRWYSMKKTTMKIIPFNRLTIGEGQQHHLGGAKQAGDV
The assay can be described thus: BLI.

B1: recombinant FXIII‐B (natural protein)
chain: EEKPCGFPHVENGRIAQYYYTFKSFYFPMSIDKKLSFFCLAGYTTESGRQEEQTTCTTEGWSPEPRCFKKCTKPDLSNGYISDVKLLYKIQENMRYGCASGYKTTGGKDEEVVQCLSDGWSSQPTCRKEHETCLAPELYNGNYSTTQKTFKVKDKVQYECATGYYTAGGKKTEEVECLTYGWSLTPKCTKLKCSSLRLIENGYFHPVKQTYEEGDVVQFFCHENYYLSGSDLIQCYNFGWYPESPVCEGRRNRCPPPPLPINSKIQTHSTTYRHGEIVHIECELNFEIHGSAEIRCEDGKWTEPPKCIEGQEKVACEEPPFIENGAANLHSKIYYNGDKVTYACKSGYLLHGSNEITCNRGKWTLPPECVENNENCKHPPVVMNGAVADGILASYATGSSVEYRCNEYYLLRGSKISRCEQGKWSSPPVCLEPCTVNVDYMNRNNIEMKWKYEGKVLHGDLIDFVCKQGYDLSPLTPLSELSVQCNRGEVKYPLCTRKESKGMCTSPPLIKHGVIISSTVDTYENGSSVEYRCFDHHFLEGSREAYCLDGMWTTPPLCLEPCTLSFTEMEKNNLLLKWDFDNRPHILHGEYIEFICRGDTYPAELYITGSILRMQCDRGQLKYPRCIPRQSTLSYQEPLRT
On to B1, for which the Kd turned out to be 46.9 nM.
